Results from US10246495B2, “Variants of Gal2 transporter and their uses” (BUTALCO GMBH, priority 2014, dated 2019).
Entries after “also recorded” stand apart in the source; their conditions may differ.

Columns and labels:
[1] = target: Gal2 (Saccharomyces cerevisiae, UniProt P13181); conditions: galactose transport by Gal2; cited from earlier work
[2] = tested on: EBY.VW4000; assay: Serial dilution growth drop test of Gal2 variants in EBY.VW4000 on hexoses; type: cell-based, Saccharomyces cerevisiae; conditions: FIG. 3, four days at 30°; for growth on glucose: Gal2 of CEN.PK constructs
Experimental: The transformants were cultivated in 5 ml SCM-ura with 20 g/l maltose at 300, washed with water and adjusted to an OD600 of 1. Thereof it followed a serial dilution. 5 μl were dropped onto the respective media and it was incubated for […] at 30°. As a control for the dilution SCM-ura with 20 g/l maltose was taken. The cells of the mutated transporters were dropped onto SCD-ura with 0.2% and 2% glucose, as well as SCG-ura with 0.2% and 2% D-galactose to test their functionality. Furthermore the wild type of CEN.PK2 and Ethanol Red, as well as Gal2_ep3.1 were used for comparison. The galactose transporter with the mutation T354A is from HDY.GUF10.
FIG. 3: Drop test of Gal2_T354A in combination with V71I and L280R in EBY.VW4000 after four days at 30°. Several dilutions were dropped from left to right (undiluted, 1:10, 1:100, 1:1000).
(§1) For easy comparison of growth of different S. cerevisiae strains under various growth conditions a serial dilution spot assay was performed. Cells were grown in liquid culture to exponential phase in appropriate medium, collected by centrifugation (2000×g, 2 min), washed twice with sterile water and then resuspended to an OD600 of 1.0 in selective medium without carbon source. From this cell suspension a ten-fold serial dilution was prepared in selective medium (four dilution steps). 6 μl of each cell suspension were spotted on plates of the media to be examined and allowed to dry. Plates were incubated at 30° C.
First a growth test was performed with the vectors in VW4000 on glucose and maltose media. The galactose transporter of the wild type CEN.PK2, as well as Gal2_ep3.1 were used as controls and as a comparison.
The following variants of Gal2 were constructed in expression vectors: T354A, T354A+V71I, T354A+L280R, L280R and […]. They were transformed into competent EBY.VW4000 cells. Then drop tests were performed on different carbon sources.

[3] = tested on: AFY10; assay: Serial dilution growth drop test of Gal2 variants in AFY10 on xylose and xylose-glucose mixtures; type: cell-based, Saccharomyces cerevisiae; conditions: FIG. 4; 2 g/l xylose, six days at 30°
Experimental: The transformants were cultivated in 5 ml SCE-ura-leu with 2% ethanol at 300, washed with water and adjusted to an OD600 of 1. Thereof it followed a serial dilution. 5 μl were dropped onto the respective media and it was incubated for […] at 30°. As a control for the dilution SCE-ura-leu with 2% ethanol was taken. The cells of the mutated transporters were dropped onto SCX-ura-leu with 0.2% and 2% D-xylose, as well as SC-ura-leu with 1% D-xylose with 4% D-glucose and SC-ura-leu with 0.2% D-xylose and 2% D-glucose to test their functionality. Furthermore the wild type of CEN.PK2 and Ethanol Red, as well as Gal2_ep3.1 were used for comparison. The galactose transporter with the mutation T354A is from HDY.GUF10.
FIG. 4: Drop test of Gal2_T354A in combination with V71I and L280R in AFY10 after six days at 30°. Several dilutions were dropped from left to right (undiluted, 1:10, 1:100, 1:1000).
as §1
Furthermore this was also done with AFY10 in order to investigate the xylose specificity and the glucose affinity of the transformants.
The various constructs were transformed into AFY10 cells together with vector YEp181_pHXT7-optXI_Clos, and serial dilution growth drop tests were performed.

Chain of Gal2 (P13181 whole entry): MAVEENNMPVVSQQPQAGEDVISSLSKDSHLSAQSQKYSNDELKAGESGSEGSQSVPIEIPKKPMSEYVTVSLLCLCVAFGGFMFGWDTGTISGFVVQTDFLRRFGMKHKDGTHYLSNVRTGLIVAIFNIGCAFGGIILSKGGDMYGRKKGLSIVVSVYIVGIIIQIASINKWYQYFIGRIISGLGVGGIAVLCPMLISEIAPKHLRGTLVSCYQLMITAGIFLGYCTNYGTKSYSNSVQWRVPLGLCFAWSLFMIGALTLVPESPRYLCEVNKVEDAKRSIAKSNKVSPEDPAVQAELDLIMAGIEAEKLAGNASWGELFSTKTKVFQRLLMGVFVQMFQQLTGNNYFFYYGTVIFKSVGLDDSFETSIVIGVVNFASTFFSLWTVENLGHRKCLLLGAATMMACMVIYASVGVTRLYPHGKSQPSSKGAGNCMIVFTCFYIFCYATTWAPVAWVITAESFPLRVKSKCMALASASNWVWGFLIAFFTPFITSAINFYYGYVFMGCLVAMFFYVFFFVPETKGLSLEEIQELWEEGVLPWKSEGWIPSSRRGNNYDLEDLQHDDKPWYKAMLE

O=C[C@H](O)[C@@H](O)[C@@H](O)[C@H](O)CO [galactose]
Km [1]: 1000 to 5000 µM

B1: V71I: Gal2 of CEN.PK with amino acid exchange V71I alone (protein, UniProt P13181 1-574, looked up, variant V71I)
Galactose transporter: MAVEENNMPVVSQQPQAGEDVISSLSKDSHLSAQSQKYSNDELKAGESGSEGSQSVPIEIPKKPMSEYVTISLLCLCVAFGGFMFGWDTGTISGFVVQTDFLRRFGMKHKDGTHYLSNVRTGLIVAIFNIGCAFGGIILSKGGDMYGRKKGLSIVVSVYIVGIIIQIASINKWYQYFIGRIISGLGVGGIAVLCPMLISEIAPKHLRGTLVSCYQLMITAGIFLGYCTNYGTKSYSNSVQWRVPLGLCFAWSLFMIGALTLVPESPRYLCEVNKVEDAKRSIAKSNKVSPEDPAVQAELDLIMAGIEAEKLAGNASWGELFSTKTKVFQRLLMGVFVQMFQQLTGNNYFFYYGTVIFKSVGLDDSFETSIVIGVVNFASTFFSLWTVENLGHRKCLLLGAATMMACMVIYASVGVTRLYPHGKSQPSSKGAGNCMIVFTCFYIFCYATTWAPVAWVITAESFPLRVKSKCMALASASNWVWGFLIAFFTPFITSAINFYYGYVFMGCLVAMFFYVFFFVPETKGLSLEEIQELWEEGVLPWKSEGWIPSSRRGNNYDLEDLQHDDKPWYKAMLE
effect on uptake of glucose or galactose [2]: no effect
growth on low xylose concentrations [3]: very slow growth; also recorded: poor growth

B2: T354A: Gal2 of CEN.PK with amino acid exchange T354A alone (protein, listed as Saccharomyces cerevisiae)
chain: MAVEENNMPVVSQQPQAGEDVISSLSKDSHLSAQSQKYSNDELKAGESGPEGSQSVPIEIPKKPMSEYVTVSLLCLCVAFGGFMFGWDTGTISGFVVQTDFLRRFGMKHKDGTHYLSNVRTGLIVAIFNIGCAFGGIILSKGGDMYGRKKGLSIVVSVYIVGIIIQIASINKWYQYFIGRIISGLGVGGIAVLCPMLISEIAPKHLRGTLVSCYQLMITAGIFLGYCTNYGTKSYSNSVQWRVPLGLCFAWSLFMIGALTLVPESPRYLCEVNKVEDAKLSIAKSNKVSPEDPAVQAELDLIMAGIEAEKLAGNASWGELFSTKTKVFQRLLMGVFVQMFQQLTGNNYFFYYGAVIFKSVGLDDSFETSIVIGVVNFASTFFSLWTVENLGRRKCLLLGAATMMACMVIYASVGVTRLYPHGKSQPSSKGAGNCMIVFTCFYIFCYATTWAPVAWVITAESFPLRVKSKCMALASASNWVWGFLIAFFTPFITSAINFYYGYVFMGCLVAMFFYVFFFVPETKGLSLEEIQELWEEGVLPWKSEGWIPSSRRGNNYDLEDLQHDDKPWYKAMLE
growth on glucose [2]: strongly impairs growth
growth on low xylose concentrations [3]: poor growth

B3: V71I and T354A: Gal2 of CEN.PK with amino acid exchanges T354A and V71I (protein, UniProt P13181 1-574, looked up, variant V71I T354A)
Galactose transporter: MAVEENNMPVVSQQPQAGEDVISSLSKDSHLSAQSQKYSNDELKAGESGSEGSQSVPIEIPKKPMSEYVTISLLCLCVAFGGFMFGWDTGTISGFVVQTDFLRRFGMKHKDGTHYLSNVRTGLIVAIFNIGCAFGGIILSKGGDMYGRKKGLSIVVSVYIVGIIIQIASINKWYQYFIGRIISGLGVGGIAVLCPMLISEIAPKHLRGTLVSCYQLMITAGIFLGYCTNYGTKSYSNSVQWRVPLGLCFAWSLFMIGALTLVPESPRYLCEVNKVEDAKRSIAKSNKVSPEDPAVQAELDLIMAGIEAEKLAGNASWGELFSTKTKVFQRLLMGVFVQMFQQLTGNNYFFYYGAVIFKSVGLDDSFETSIVIGVVNFASTFFSLWTVENLGHRKCLLLGAATMMACMVIYASVGVTRLYPHGKSQPSSKGAGNCMIVFTCFYIFCYATTWAPVAWVITAESFPLRVKSKCMALASASNWVWGFLIAFFTPFITSAINFYYGYVFMGCLVAMFFYVFFFVPETKGLSLEEIQELWEEGVLPWKSEGWIPSSRRGNNYDLEDLQHDDKPWYKAMLE
growth on glucose [2]: does not mediate growth
growth on low xylose concentrations [3]: growth like the Gal2 wild type
